In patent US20250262210A1 (TRUSTEES OF COLUMBIA UNIVERSITY IN THE CITY OF NEW YORK, published 2025):
Numbering of substitutions follows the chain as printed. Each block holds one binder with its values, some of them ahead of it.

How the values were obtained:
LZTR1 R810W-FLAG = target: T1, LZTR1 R810W-FLAG (human, UniProt Q8N653 1-840); experiment: IP/MS, LZTR1 R810W-FLAG, U87
T1 construct: Stably expressed in U87 cells by lentivirus; also called LZTR1-FLAG-R810W; LZTR1 RW; not shown: FLAG tag
T1 sequence (looked up): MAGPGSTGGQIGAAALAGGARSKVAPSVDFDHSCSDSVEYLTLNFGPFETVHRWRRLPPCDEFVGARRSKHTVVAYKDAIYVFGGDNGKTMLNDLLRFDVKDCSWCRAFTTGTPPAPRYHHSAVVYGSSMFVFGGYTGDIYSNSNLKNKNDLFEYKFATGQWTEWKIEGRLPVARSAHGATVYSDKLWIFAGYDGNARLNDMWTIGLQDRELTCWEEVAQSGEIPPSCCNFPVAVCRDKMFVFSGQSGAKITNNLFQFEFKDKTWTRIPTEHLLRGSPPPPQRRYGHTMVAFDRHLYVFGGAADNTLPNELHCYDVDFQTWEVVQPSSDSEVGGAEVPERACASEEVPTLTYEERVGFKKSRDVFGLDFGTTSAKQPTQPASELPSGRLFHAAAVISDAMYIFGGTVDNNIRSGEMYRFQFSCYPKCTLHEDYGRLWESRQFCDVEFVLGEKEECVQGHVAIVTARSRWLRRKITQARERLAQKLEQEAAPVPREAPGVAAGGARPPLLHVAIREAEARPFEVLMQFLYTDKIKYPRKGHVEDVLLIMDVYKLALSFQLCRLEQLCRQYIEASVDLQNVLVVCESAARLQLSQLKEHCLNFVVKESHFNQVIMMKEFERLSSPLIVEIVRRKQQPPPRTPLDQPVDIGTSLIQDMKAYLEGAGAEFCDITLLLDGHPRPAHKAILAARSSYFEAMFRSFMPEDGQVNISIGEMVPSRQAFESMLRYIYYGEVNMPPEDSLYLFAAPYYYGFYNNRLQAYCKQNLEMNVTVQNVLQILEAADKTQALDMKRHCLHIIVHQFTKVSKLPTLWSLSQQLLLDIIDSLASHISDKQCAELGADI
In short: (§1)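 Read-out: spectral counts from LC-MS/MS (Orbitrap Fusion) after MaxQuant identification. Variable modifications were Met oxidation, protein N-terminal acetylation and N/Q deamidation.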

LZTR1-FLAG = target: T2, LZTR1-FLAG (human, UniProt Q8N653 1-840); experiment: IP/MS, LZTR1 wild type-FLAG, U87
T2 construct: Expressed in HEK 293T, HeLa or U87 cells; used as cell lysate; also called LZTR1 wild type-FLAG; LZTR1 WT; not shown: FLAG tag at the C-terminus
T2 sequence (looked up): T1 sequence (looked up) with W810R
In short: as §1

- binding result (LZTR1 R810W-FLAG): binds
- binding result (LZTR1-FLAG): binds
B5: TELO2 (other, human, UniProt Q9Y4R8 1-837, looked up)
chain: MEPAPSEVRLAVREAIHALSSSEDGGHIFCTLESLKRYLGEMEPPALPREKEEFASAHFSPVLRCLASRLSPAWLELLPHGRLEELWASFFLEGPADQAFLVLMETIEGAAGPSFRLMKMARLLARFLREGRLAVLMEAQCRQQTQPGFILLRETLLGKVVALPDHLGNRLQQENLAEFFPQNYFRLLGEEVVRVLQAVVDSLQGGLDSSVSFVSQVLGKACVHGRQQEILGVLVPRLAALTQGSYLHQRVCWRLVEQVPDRAMEAVLTGLVEAALGPEVLSRLLGNLVVKNKKAQFVMTQKLLFLQSRLTTPMLQSLLGHLAMDSQRRPLLLQVLKELLETWGSSSAIRHTPLPQQRHVSKAVLICLAQLGEPELRDSRDELLASMMAGVKCRLDSSLPPVRRLGMIVAEVVSARIHPEGPPLKFQYEEDELSLELLALASPQPAGDGASEAGTSLVPATAEPPAETPAEIVDGGVPQAQLAGSDSDLDSDDEFVPYDMSGDRELKSSKAPAYVRDCVEALTTSEDIERWEAALRALEGLVYRSPTATREVSVELAKVLLHLEEKTCVVGFAGLRQRALVAVTVTDPAPVADYLTSQFYALNYSLRQRMDILDVLTLAAQELSRPGCLGRTPQPGSPSPNTPCLPEAAVSQPGSAVASDWRVVVEERIRSKTQRLSKGGPRQGPAGSPSRFNSVAGHFFFPLLQRFDRPLVTFDLLGEDQLVLGRLAHTLGALMCLAVNTTVAVAMGKALLEFVWALRFHIDAYVRQGLLSAVSSVLLSLPAARLLEDLMDELLEARSWLADVAEKDPDEDCRTLALRALLLLQRLKNRLLPPASP

- binding result (LZTR1 R810W-FLAG): binds
- binding result (LZTR1-FLAG): binds
B6: TBK1 (other, human, UniProt Q9UHD2 1-729, looked up)
chain: MQSTSNHLWLLSDILGQGATANVFRGRHKKTGDLFAIKVFNNISFLRPVDVQMREFEVLKKLNHKNIVKLFAIEEETTTRHKVLIMEFCPCGSLYTVLEEPSNAYGLPESEFLIVLRDVVGGMNHLRENGIVHRDIKPGNIMRVIGEDGQSVYKLTDFGAARELEDDEQFVSLYGTEEYLHPDMYERAVLRKDHQKKYGATVDLWSIGVTFYHAATGSLPFRPFEGPRRNKEVMYKIITGKPSGAISGVQKAENGPIDWSGDMPVSCSLSRGLQVLLTPVLANILEADQEKCWGFDQFFAETSDILHRMVIHVFSLQQMTAHKIYIHSYNTATIFHELVYKQTKIISSNQELIYEGRRLVLEPGRLAQHFPKTTEENPIFVVSREPLNTIGLIYEKISLPKVHPRYDLDGDASMAKAITGVVCYACRIASTLLLYQELMRKGIRWLIELIKDDYNETVHKKTEVVITLDFCIRNIEKTVKVYEKLMKINLEAAELGEISDIHTKLLRLSSSQGTIETSLQDIDSRLSPGGSLADAWAHQEGTHPKDRNVEKLQVLLNCMTEIYYQFKKDKAERRLAYNEEQIHKFDKQKLYYHATKAMTHFTDECVKKYEAFLNKSEEWIRKMLHLRKQLLSLTNQCFDIEEEVSKYQEYTNELQETLPQKMFTASSGIKHTMTPIYPSSNTLVEMTLGMKKLKEEMEGVVKELAENNHILERFGSLTMDGGLRNVDCL

The remaining lines, values behind:

B1: SPRYD3 (other, human, UniProt Q8NCJ5 1-442, looked up)
chain: MRRTRRPRFVLMNKMDDLNLHYRFLNWRRRIREIREVRAFRYQERFKHILVDGDTLSYHGNSGEVGCYVASRPLTKDSNYFEVSIVDSGVRGTIAVGLVPQYYSLDHQPGWLPDSVAYHADDGKLYNGRAKGRQFGSKCNSGDRIGCGIEPVSFDVQTAQIFFTKNGKRVGSTIMPMSPDGLFPAVGMHSLGEEVRLHLNAELGREDDSVMMVDSYEDEWGRLHDVRVCGTLLEYLGKGKSIVDVGLAQARHPLSTRSHYFEVEIVDPGEKCYIALGLARKDYPKNRHPGWSRGSVAYHADDGKIFHGSGVGDPFGPRCYKGDIMGCGIMFPRDYILDSEGDSDDSCDTVILSPTARAVRNVRNVMYLHQEGEEEEEEEEEEEDGEEIEPEHEGRKVVVFFTRNGKIIGKKDAVVPSGGFFPTIGMLSCGEKVKVDLHPLSG
- binding result (LZTR1 R810W-FLAG): binds
- binding result (LZTR1-FLAG): binds

B2: TRAPPC12 (other, human, UniProt Q8WVT3 1-735, looked up)
chain: MEDAGGGEETPAPEAPHPPQLAPPEEQGLLFQEETIDLGGDEFGSEENETASEGSSPLADKLNEHMMESVLISDSPNSEGDAGDLGRVRDEAEPGGEGDPGPEPAGTPSPSGEADGDCAPEDAAPSSGGAPRQDAAREVPGSEAARPEQEPPVAEPVPVCTIFSQRAPPASGDGFEPQMVKSPSFGGASEASARTPPQVVQPSPSLSTFFGDTAASHSLASDFFDSFTTSAFISVSNPGAGSPAPASPPPLAVPGTEGRPEPVAMRGPQAAAPPASPEPFAHIQAVFAGSDDPFATALSMSEMDRRNDAWLPGEATRGVLRAVATQQRGAVFVDKENLTMPGLRFDNIQGDAVKDLMLRFLGEKAAAKRQVLNADSVEQSFVGLKQLISCRNWRAAVDLCGRLLTAHGQGYGKSGLLTSHTTDSLQLWFVRLALLVKLGLFQNAEMEFEPFGNLDQPDLYYEYYPHVYPGRRGSMVPFSMRILHAELQQYLGNPQESLDRLHKVKTVCSKILANLEQGLAEDGGMSSVTQEGRQASIRLWRSRLGRVMYSMANCLLLMKDYVLAVEAYHSVIKYYPEQEPQLLSGIGRISLQIGDIKTAEKYFQDVEKVTQKLDGLQGKIMVLMNSAFLHLGQNNFAEAHRFFTEILRMDPRNAVANNNAAVCLLYLGKLKDSLRQLEAMVQQDPRHYLHESVLFNLTTMYELESSRSMQKKQALLEAVAGKEGDSFNTQCLKLA
- binding result (LZTR1 R810W-FLAG): binds
- binding result (LZTR1-FLAG): binds

B3: SYDE1 (other, human, UniProt Q6ZW31 1-735, looked up)
chain: MAEPLLRKTFSRLRGREKLPRKKSDAKERGHPAQRPEPSPPEPEPQAPEGSQAGAEGPSSPEASRSPARGAYLQSLEPSSRRWVLGGAKPAEDTSLGPGVPGTGEPAGEIWYNPIPEEDPRPPAPEPPGPQPGSAESEGLAPQGAAPASPPTKASRTKSPGPARRLSIKMKKLPELRRRLSLRGPRAGRERERAAPAGSVISRYHLDSSVGGPGPAAGPGGTRSPRAGYLSDGDSPERPAGPPSPTSFRPYEVGPAARAPPAALWGRLSLHLYGLGGLRPAPGATPRDLCCLLQVDGEARARTGPLRGGPDFLRLDHTFHLELEAARLLRALVLAWDPGVRRHRPCAQGTVLLPTVFRGCQAQQLAVRLEPQGLLYAKLTLSEQQEAPATAEPRVFGLPLPLLVERERPPGQVPLIIQKCVGQIERRGLRVVGLYRLCGSAAVKKELRDAFERDSAAVCLSEDLYPDINVITGILKDYLRELPTPLITQPLYKVVLEAMARDPPNRVPPTTEGTRGLLSCLPDVERATLTLLLDHLRLVSSFHAYNRMTPQNLAVCFGPVLLPARQAPTRPRARSSGPGLASAVDFKHHIEVLHYLLQSWPDPRLPRQSPDVAPYLRPKRQPPLHLPLADPEVVTRPRGRGGPESPPSNRYAGDWSVCGRDFLPCGRDFLSGPDYDHVTGSDSEDEDEEVGEPRVTGDFEDDFDAPFNPHLNLKDFDALILDLERELSKQINVCL
- binding result (LZTR1 R810W-FLAG): binds
- binding result (LZTR1-FLAG): binds

B4: TRIM47 (other, human, UniProt Q96LD4 1-638, looked up)
chain: MDGSGPFSCPICLEPLREPVTLPCGHNFCLACLGALWPHRGASGAGGPGGAARCPLCQEPFPDGLQLRKNHTLSELLQLRQGSGPGSGPGPAPALAPEPSAPSALPSVPEPSAPCAPEPWPAGEEPVRCDACPEGAALPAALSCLSCLASFCPAHLGPHERSPALRGHRLVPPLRRLEESLCPRHLRPLERYCRAERVCLCEACAAQEHRGHELVPLEQERALQEAEQSKVLSAVEDRMDELGAGIAQSRRTVALIKSAAVAERERVSRLFADAAAALQGFQTQVLGFIEEGEAAMLGRSQGDLRRQEEQRSRLSRARQNLSQVPEADSVSFLQELLALRLALEDGCGPGPGPPRELSFTKSSQAVRAVRDMLAVACVNQWEQLRGPGGNEDGPQKLDSEADAEPQDLESTNLLESEAPRDYFLKFAYIVDLDSDTADKFLQLFGTKGVKRVLCPINYPLSPTRFTHCEQVLGEGALDRGTYYWEVEIIEGWVSMGVMAEDFSPQEPYDRGRLGRNAHSCCLQWNGRSFSVWFHGLEAPLPHPFSPTVGVCLEYADRALAFYAVRDGKMSLLRRLKASRPRRGGIPASPIDPFQSRLDSHFAGLFTHRLKPAFFLESVDAHLQIGPLKKSCISVLKRR
- binding result (LZTR1 R810W-FLAG): binds
- binding result (LZTR1-FLAG): binds
